From PMC4826616

What was measured:
[1] = target: MDA-modified low density lipoprotein; assay: ELISA
[2] = target: complement factor H (purified CFH) (UniProt P08603); assay: flow cytometry on cells
[3] = target: MAA-modified bovine serum albumin (bovine) (UniProt P02769); assay: ELISA

Substance: CFH variant H402 (from UniProt P08603 19-1231) (natural protein)
- reduction of binding against plasma homozygous for the Y402 allele [1]: 52%

Substance: MAA-modified bovine serum albumin (from UniProt P02769 25-607)
- percent competition of the binding of CFH to apoptotic blebs [2]: > 60%

Substance: complement factor H (purified CFH) (from UniProt P08603 19-1231) (natural protein)
- Kd [3]: 64 nM
